In paper PMC3621912 (Virology, 2012):

Columns and labels:
non-reducing SDS-PAGE = target: the molecule itself; assay: non-reducing SDS-PAGE
[1] = target: the molecule itself; assay: non-reducing SDS-PAGE with gel densitometry
[2] = target: the molecule itself; assay: non-reducing SDS-PAGE with immunoblot

B1: recombinant VI114-G48C (protein VI residues 34-114 with G48C) (domain or fragment)
chain: AFSWGSLWSGIKNFCSTVKNYGSKAWNSSTGQMLRDKLKEQNFQQKVVDGLASGISGVVDLANQAVQNKINSKLDPRPPVE
modifications: intermolecular disulfide bond (in the dimer fraction)
- stoichiometry N (non-reducing SDS-PAGE): 2

B2: protein VI with the G48C mutation, in AdV VI-G48C particles (natural protein)
chain: AFSWGSLWSGIKNFCSTVKNYGSKAWNSSTGQMLRDKLKEQNFQQKVVDGLASGISGVVDLANQAVQNKINSKLDPRPPVEEPPPAVETVSPEGRGEKRPRPDREETLVTQIDEPPSYEEALKQGLPTTRPIAPMATGVLGQHTPVTLDLPPPADTQQKPVLPGPTAVVVTRPSRASLRRAASGPRSLRPVASGNWQSTLNSIVGL
modifications: intermolecular disulfide bond between protein VI molecules (in the dimer fraction)
- ratio of monomer:dimer [1]: ~1.4 dimer per monomer
- stoichiometry N [2]: 2
